According to patent US10183062B2, “Treatment for cancer” (The University of Nottingham, priority 2013, dated 2019):
“Also recorded” adds a separate entry of the source.

How the values were obtained:
[1] = tested on: E. coli NfnB nitroreductase, wild type; conditions: Knox et al., 1992; read-out: Km^NADH; cited from earlier work
[2] = tested on: BliNTR, NTR from Bacillus licheniformis; conditions: Emptage et al., 2009; read-out: Km^NADH; cited from earlier work
[3] = tested on: E. coli NfnB variant N71S/F124K; conditions: Searle et al., 2004 and Race et al., 2007; read-out: Km^NADH; cited from earlier work
[4] = tested on: NC(=O)C1=CN([C@@H]2O[C@H](COP(=O)(O)OP(=O)(O)OC[C@H]3O[C@@H](n4cnc5c(N)ncnc54)[C@H](O)[C@@H]3O)[C@@H](O)[C@H]2O)C=CC1; assay: CB1954 nitroreductase activity, HPLC, purified His-tagged HsoNTR; format: biochemical, Haemophilus somnus 129PT; conditions: other: 37° C., pH 7.0
Description: (§1) Genes encoding homologs of E. coli NfnB and Bacillus amyloliquefaciens YwrO from several bacteria were cloned into an E. coli expression vector for screening (see Methods below). These were the NfnB homolog from Neisseria meningitidis MC58 (‘NmeNTR’, accession number Q9K022), the NfnB homolog from Haemophilus somnus 129PT (‘HsoNTR’, accession number ZP_00122352.1), the NfnB homolog from Burkholderia fungorum LB400 (‘BfuNTR’, accession number ZP_00029570.1), the YwrO homolog from Vibrio cholerae (‘VchYwrO’, accession number Q9KNX3), the YwrO homolog from Rhodobacter sphaeroides (‘RspYwrO’, accession number ZP_00007082.1), and two YwrO homologs from Pseudomonas aeruginosa (‘PaeYwrO1’, accession number Q9HUJ0; and ‘PaeYwrO2’, accession number Q9I4B3).
(§2) For determination of CB1954 nitroreductase kinetic parameters, six-histidine affinity-tagged enzymes were purified from cell lysates purified using a Novagen His-Bind kit in accordance with the manufacturer's instructions.
(§3) CB1954 nitroreductase activity was determined essentially as described by Anlezark (6). Reaction mixtures containing 500 μM NADH or NADPH and a small quantity of enzyme (either crude lysate or purified enzyme) were assembled in pre-warmed (to 37° C.) 100 mM sodium phosphate buffer (pH 7.0), and started with the addition of 100 μM CB1954 and prompt mixing.
(§4) To determine initial reaction rates during preliminary screening of CB1954 nitroreductase candidates, aliquots of the reaction mixtures taken at various times were injected into a Partisphere SCX (100×4.7 mm) HPLC column and eluted isocratically at 2 ml/min with 130 mM NaH2PO4 (pH 5.0). Eluates were continuously monitored at 260 nm and 325 nm, and the absorbance spectra of eluting components recorded using a photodiode array detector. Peaks were identified with reference to standards and/or by their known absorbance spectra (7) and anticipated column retention times as appropriate. Rates were determined based on the decrease in the area under the CB1954 peak over time, normalised to the known starting concentration of 100 μM using the peak from the zero timepoint sample.
(§5) To determine initial reaction rates and CB1954 nitroreduction products in later experiments with purified proteins, peaks were identified as before, and rates were determined based on the increase in the area under the 4-hydroxylamine derivative peak over time, normalised using enzymatically-synthesised 4-hydroxylamine standards.
(§6) NmeNTR and HsoNTR were each affinity-tagged, over-expressed, purified, and the CB1954 nitroreductase activities of the purified proteins characterized using the HPLC assay. The reaction products and kinetic parameters of these enzymes with respect to CB1954 and NADH were determined (Table 1). […]

[5] = tested on: NC(=O)c1cc(N2CC2)c([N+](=O)[O-])cc1[N+](=O)[O-]; assay: as above; format: biochemical, Haemophilus somnus 129PT; conditions: pH 7.0; for kcat: 37° C.
Description: as §1, §2, §3, §4, §5, §6

[6] = tested on: NC(=O)C1=CN([C@@H]2O[C@H](COP(=O)(O)OP(=O)(O)OC[C@H]3O[C@@H](n4cnc5c(N)ncnc54)[C@H](O)[C@@H]3O)[C@@H](O)[C@H]2O)C=CC1; assay: CB1954 nitroreductase activity, HPLC, purified His-tagged NmeNTR; format: biochemical, Neisseria meningitidis MC58; conditions: other: 37° C., pH 7.0
Description: as §1, §2, §3, §4, §5
(§7) NmeNTR and HsoNTR were each affinity-tagged, over-expressed, purified, and the CB1954 nitroreductase activities of the purified proteins characterized using the HPLC assay. The reaction products and kinetic parameters of these enzymes with respect to CB1954 and NADH were determined (Table 1). […] Moreover, the kinetic parameters of HsoNTR and NmeNTR differ dramatically from those of E. coli NfnB and other published enzymes (Table 1). […] NmeNTR would therefore approach saturation with CB1954 in a therapeutic regime using the maximum clinically-recommended dose, so the prodrug would be efficiently activated and high levels of tumour-specific cytotoxicity achieved.

[7] = tested on: NC(=O)c1cc(N2CC2)c([N+](=O)[O-])cc1[N+](=O)[O-]; assay: as above; format: biochemical, Neisseria meningitidis MC58; conditions: pH 7.0
Description: as §1, §2, §3, §4, §5, §7

[8] = Specific menadione reductase activity in lysates of E. coli cells (screen for functional expression); format: biochemical; conditions: E. coli lysates containing expression plasmid
Protocol: In an initial screen for functional expression of each of the cloned genes, specific menadione reductase activity was determined in lysates of E. coli cells containing the NfnB or YwrO homolog expression plasmid. Enzymes from these families are expected to be NAD(P)H-dependent quinone reductases regardless of their nitroreductase activity against CB1954, and a photospectrometric menadione reductase assay is available (see Methods below), so this approach provides a convenient means to assess functional expression.
(§8) Lysates of E. coli clones containing pMTL1015-based enzyme expression plasmids were prepared for preliminary characterisation of enzyme activities. […]
Menadione reductase activity was determined by the method of Knox (5). […] Reduction of cytochrome C was recorded by measuring increase in absorbance at 550 nm. Specific activities were calculated using the total protein concentrations of cell lysates, which were determined using the Bradford reagent (Sigma-Aldrich). Aliquots of cell lysates were mixed with 250 μl of Bradford reagent and incubated in the dark at room temperature for 5 min before absorbance was measured at 595 nm. Absorbance values were compared to those obtained using known concentrations of bovine serum albumin.

[9] = Screen for CB1954 nitroreductase activity in E. coli lysates (HPLC); format: biochemical; conditions: 100 μM CB1954
Protocol: To screen for CB1954 nitroreductase activity of each of the functionally expressed genes, lysates of E. coli cells containing the NfnB or YwrO homolog expression plasmid were added to reaction mixtures containing CB1954 and the concentration of CB1954 was monitored by HPLC (see Methods below). […] Such activity was not observed in the lysates containing VchYwrO, PaeYwrO1 or PaeYwrO2.
as §8, §3
To determine initial reaction rates during preliminary screening of CB1954 nitroreductase candidates, aliquots of the reaction mixtures taken at various times were injected into a Partisphere SCX (100×4.7 mm) HPLC column and eluted isocratically at 2 ml/min with 130 mM NaH2PO4 (pH 5.0). Eluates were continuously monitored at 260 nm and 325 nm, and the absorbance spectra of eluting components recorded using a photodiode array detector. […]

[10] = CB1954 nitroreductase activity of purified His-tagged proteins (HPLC assay); format: biochemical
Protocol: as §2, §3, §5, §7

[11] = other: CB1954, cofactor NADPH, 37° C.

In the case of `NC(=O)C1=CN([C@@H]2O[C@H](COP(=O)(O)OP(=O)(O)OC[C@H]3O[C@@H](n4cnc5c(N)ncnc54)[C@H](O)[C@@H]3O)[C@@H](O)[C@H]2O)C=CC1` [NADH], the Km [1] is given as 6 µM, the Km [2] is given as 820 µM and the Km [3] is given as 5 µM.

With “HsoNTR, Haemophilus somnus 129PT nitroreductase (NfnB homolog, ZP_00122352.1), wild type, SEQ ID NO: 2 (Histophilus somni)” the Km [4] was 644 µM, the Km ([5]; other: 37° C.) was 22.03 µM and the kcat ([5]; other: CB1954, cofactor NADH) was 3.5 (NADH) S^−1. The kcat ([5]; other: CB1954, cofactor NADPH) was 13.13 (NADPH) S^−1.

With “NmeNTR, Neisseria meningitidis MC58 nitroreductase (NfnB homolog, Q9K022), wild type, SEQ ID NO: 1 (Neisseria meningitidis MC58)” the Km [6] was 188 µM, the Km ([7]; other: 37° C.) was 2.47 µM and the kcat ([7]; other: 37° C.) was 4.04 (NADH). The kcat/Km ([7]; other: 37° C.) was 1.636 (NADH), the kcat [7, 11] was 15.23 (NADPH) and the kcat/Km [7, 11] was 6.166 (NADPH).

B1: NmeNTR: NfnB homolog nitroreductase from Neisseria meningitidis MC58, accession Q9K022, SEQ ID NO: 1 (protein, listed as Neisseria meningitidis)
chain: MTVLSKEQVLSAFKNRKSCRHYDAARKISAEDFQFILELGRLSPSSVGSEPWQFIVVQNPEIRQAIKPFSWGMADALDTASHLVVFLAKKNARSDSPFMLESLKRRGVTEPDAVAKSLARYQAFQADDIKILDDSRALFDWCCRQTYIALANMMTGAAMAGIDSCPVEGFNYAEMERILSGQFGLFDAAEWGVSVAATFGYRVQEIATKARRPLEETVIWA
In the case of B1, the “specific menadione reductase activity of lysates versus control” value [8] is reported as “significantly elevated above the control”, the “CB1954 nitroreductase activity (decrease in CB1954 concentration)” value [9] is reported as “caused a decrease in CB1954 concentration; also recorded: rapidly consumed” and the Km [10] is reported as < 6.3 µM. The “Km^CB1954 relative to the lowest previously reported (NfsA)” value [10] was “seven-fold lower”, the “Kcat/K^CB1954” value ([10]; NADH) was 1.636 (NADH) s^−1μM^−1 and the “Kcat/K^CB1954” value ([10]; NADPH) was 6.166 (NADPH) s^−1μM^−1.

B2: HsoNTR: NfnB homolog nitroreductase from Haemophilus somnus 129PT, accession ZP_00122352.1, SEQ ID NO: 2 (protein, listed as Haemophilus somnus)
chain: MTTISKEHVLDSFNRRASTRYYDPNKKISNEDFSYVLEFARLSPSSVGSEPWHFLVIQNPELRAKLKPVSWGMATQIDDASHLVVILAKKNARYDSEFLVQSMKRRGLSGEQIQATKEKYHLFQAEHMKTLENDRTLFDWASKQTYIALANMLTGAALIGIDSCPIEGFNYEKVNQILTDAGVLDSDEWGVSVMATFGYRAKEIKPKSRKSLDEIVTWVK
For B2, the “specific menadione reductase activity of lysates versus control” value [8] was “significantly elevated above the control”, the “CB1954 nitroreductase activity (decrease in CB1954 concentration)” value [9] was “caused a decrease in CB1954 concentration; also recorded: rapidly consumed” and the “Kcat/K^CB1954” value ([10]; NADH) was 0.159 (NADH) s^−1μM^−1. For the same molecule, the “Kcat/K^CB1954” value ([10]; NADPH) was 0.596 (NADPH) s^−1μM^−1.
